One may read the Kd as the equilibrium constant for the complex coming apart. A low value points to higher affinity.

In experiment [1] the target is T1, human CD33 (human, UniProt P20138 18-364).
T1 construct: whole, on cells; also called U937 CD33+
As to the kind of experiment: affinity for CD33, method not named in the table (antigen on mammalian cells by the text).

Experiment [2] concerns the target T2, human CD123 (alpha chain of the interleukin-3 receptor) (human, UniProt P26951 19-378).
T2 construct: also called 239 CD123+; HEK293.123
The experiment can be described thus: affinity for CD123, method not named in the table (antigen on mammalian cells by the text).

Experiment [3] deals with T3, human CD16 (human, UniProt P08637 17-254).
T3 construct: whole, on cells; also called hu CD16; CHO16-10 CD16+
The experiment can be described thus: affinity for CD16, method not named in the table (antigen on mammalian cells by the text).

Experiment [4] concerns the target T1, human CD33. As to the kind of experiment: calibrated flow cytometry on U937 cells (CD33 single-positive). As for the experimental part:
(§1) The remaining triplebodies (a), (b), (d) and (f) from the above list were further analyzed. Equilibrium binding constants (KD) of each of the component scFvs carried in these triplebodies were determined by calibrated flow cytometry (Table 5). Thermo-stability in human serum was evaluated by incubation in human serum at 37° C. in vitro, and the binding ability to CD33, CD16 and CD123 on antigen single-positive mammalian cells was measured by FACS-analysis. Residual binding capacity (in % of the starting value) was evaluated after incubation for various lengths of time (Table 5).
(§2) In the top 2 rows the variant humanized according to AHo was used, in the bottom 2 rows the variant humanized according to RK was used. U937 cells are single-positive for CD33; CHO16-10 cells are single-positive (stably transfected) variants for hu CD16; […] are a stably transfected variant of HEK293, single-positive for CD123; MOLM13 cells are a stable, human AML-derived cell line double-positive for CD123 and CD33. n = number of independent experiments performed. Numbers in the table are arithmetic means from n separate measurements ± the Standard Error of the Mean (SEM).
(In general: Flow cytometry measures light scatter and fluorescence of single cells or particles in a stream.)

Experiment [5] addresses T3, human CD16. As to the kind of experiment: calibrated flow cytometry on CHO16-10 cells (CD16 single-positive). The protocol: as §1, §2
In experiment [6] the target is T2, human CD123 (alpha chain of the …). The experiment can be described thus: calibrated flow cytometry on CD123-transfected HEK293 cells. As for the experimental part: as §1, §2
The target of experiment [7] is T3, human CD16. The experiment can be described thus: cytofluorimetry on CHO cells stably transfected with CD16.

T2 sequence (P26951 19-378 limits assumed): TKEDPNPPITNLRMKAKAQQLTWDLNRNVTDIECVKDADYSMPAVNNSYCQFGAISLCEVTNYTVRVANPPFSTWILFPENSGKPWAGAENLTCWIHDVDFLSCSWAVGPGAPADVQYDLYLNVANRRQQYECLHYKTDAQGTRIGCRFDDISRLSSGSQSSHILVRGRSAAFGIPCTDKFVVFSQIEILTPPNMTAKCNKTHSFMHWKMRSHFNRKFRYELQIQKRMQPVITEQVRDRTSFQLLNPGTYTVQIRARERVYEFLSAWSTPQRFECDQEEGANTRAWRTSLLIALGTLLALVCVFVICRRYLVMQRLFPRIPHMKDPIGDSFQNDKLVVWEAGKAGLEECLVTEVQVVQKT
T3 sequence (P08637 17-254): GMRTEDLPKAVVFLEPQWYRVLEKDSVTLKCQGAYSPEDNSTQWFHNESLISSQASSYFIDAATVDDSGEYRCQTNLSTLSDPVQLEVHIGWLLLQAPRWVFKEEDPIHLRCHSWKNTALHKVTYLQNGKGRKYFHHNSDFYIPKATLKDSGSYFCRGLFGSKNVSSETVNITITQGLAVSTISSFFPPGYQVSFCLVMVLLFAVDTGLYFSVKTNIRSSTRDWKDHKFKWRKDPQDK
T1 sequence (P20138 18-364): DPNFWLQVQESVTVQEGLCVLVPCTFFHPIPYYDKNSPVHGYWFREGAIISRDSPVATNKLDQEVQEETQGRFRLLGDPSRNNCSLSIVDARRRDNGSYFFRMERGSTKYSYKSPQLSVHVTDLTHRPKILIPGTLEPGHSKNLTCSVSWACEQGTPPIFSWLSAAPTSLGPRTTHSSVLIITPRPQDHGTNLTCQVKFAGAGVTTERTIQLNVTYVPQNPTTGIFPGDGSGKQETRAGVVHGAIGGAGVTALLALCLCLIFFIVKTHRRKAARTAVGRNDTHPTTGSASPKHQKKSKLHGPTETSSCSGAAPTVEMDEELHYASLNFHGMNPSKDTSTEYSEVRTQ

B1: single chain triplebody SPM-2, hu(33-ds16-ds123RK) (other)
chain: EVQLVESGGGLIQPGGSLRLSCAASGFPLTSYGVSWVRQPPGKGLEWLGVIWGDGSTNYHSALISRFTISRDNSKNTLYLQMNSLRAEDTAVYYCARDTYYPYYAMDYWGQGTTVTVSSGGGGSGGGGSGGGGSDIQMTQSPSSLSASVGDRVTITCKASQDVSTAVAWYQQKPGKAPKLLIYSASYRYTGVPSRFSGSGSGTDFTLTISSLQPEDFATYYCQQHYSTPLTFGQGTKLEIKRGGGGSGGGGSGGGGSGGGGSDIVLTQSPSSLSASVGDRVTITCKASQSVDFDGDSFMNWYQQKPGKAPKLLIYTTSNLESGVPSRFSASGSGTDFTLTISSLQPEDFATYYCQQSNEDPYTFGCGTKVEIKRGGGGSGGGGSGGGGSGGGGSEVQLVESGGGDVQPGGSLRLSCAFSGFSLRTSGMGVGWIRQAPGKCLEWVAHIWWDDDKRYNPSVKGRFTISKDTSSNTVYLQMNSLRAEDTAVYYCAQINPAWFAYWGQGTLVTVSSGGGGSGGGGSGGGGSGGGGSEVQLVESGGGLVQPGGSLRLSCAASGFTFTDYYMSWVRQAPGKCLEWLALIRSKADGYTTEYSASVKGRFTISRDDSKNSLYLQMNSLKTEDTAVYYCARDAAYYSYYSPEGAMDYWGQGTSVTVSSGGGGSGGGGSGGGGSDIQMTQSPSSLSASVGDRVTITCKASQNVDSAVAWYQQKPGKAPKALIYSASYRYSGVPSRFSGSGSGTDFTLTISSLQPEDFATYYCQQYYSTPWTFGCGTKVEIKRGGGGSHHHHHH
notes: Trispecific single-chain triplebody made of three scFvs in tandem, produced in HEK293 F cells; also called 33-ds16-ds123 (SPM-2)
For the molecule B1, the Kd in experiment [1] amounted to 23 nM; in experiment [2], 32 nM; in experiment [3], 35 nM.

B2: triplebody hu[33-ds16-123] (other)
chain: EVQLVESGGGLIQPGGSLRLSCAASGFPLTSYGVSWVRQPPGKGLEWLGVIWGDGSTNYHSALISRFTISRDNSKNTLYLQMNSLRAEDTAVYYCARDTYYPYYAMDYWGQGTTVTVSSGGGGSGGGGSGGGGSDIQMTQSPSSLSASVGDRVTITCKASQDVSTAVAWYQQKPGKAPKLLIYSASYRYTGVPSRFSGSGSGTDFTLTISSLQPEDFATYYCQQHYSTPLTFGQGTKLEIKRGGGGSGGGGSGGGGSGGGGSDIVLTQSPSSLSASVGDRVTITCKASQSVDFDGDSFMNWYQQKPGKAPKLLIYTTSNLESGVPSRFSASGSGTDFTLTISSLQPEDFATYYCQQSNEDPYTFGCGTKVEIKRGGGGSGGGGSGGGGSGGGGSEVQLVESGGGDVQPGGSLRLSCAFSGFSLRTSGMGVGWIRQAPGKCLEWVAHIWWDDDKRYNPSVKGRFTISKDTSSNTVYLQMNSLRAEDTAVYYCAQINPAWFAYWGQGTLVTVSSGGGGSGGGGSGGGGSGGGGSEVQLVESGGGLVQPGGSLRLSCAASGFTFTDYYMSWVRQAPGKGLEWLALIRSKADGYTTEYSASVKGRFTISRDDSKNSLYLQMNSLKTEDTAVYYCARDAAYYSYYSPEGAMDYWGQGTSVTVSSGGGGSGGGGSGGGGSDIQMTQSPSSLSASVGDRVTITCKASQNVDSAVAWYQQKPGKAPKALIYSASYRYSGVPSRFSGSGSGTDFTLTISSLQPEDFATYYCQQYYSTPWTFGQGTKVEIKR
Take B2: the Kd in experiment [4] worked out at 49 nM; in experiment [1] it was 53 nM; in experiment [2] it was 13 nM; in experiment [5], 11 nM; in experiment [3], 13 nM; in experiment [6], 11 nM.

B3: candidate triplebody hu[33-ds16-ds123RK] before polishing of the sequence (other, not shown: small tags and cut ends)
chain: EVQLVESGGGLIQPGGSLRLSCAASGFPLTSYGVSWVRQPPGKGLEWLGVIWGDGSTNYHSALISRFTISRDNSKNTLYLQMNSLRAEDTAVYYCARDTYYPYYAMDYWGQGTTVTVSSGGGGSGGGGSGGGGSDIQMTQSPSSLSASVGDRVTITCKASQDVSTAVAWYQQKPGKAPKLLIYSASYRYTGVPSRFSGSGSGTDFTLTISSLQPEDFATYYCQQHYSTPLTFGQGTKLEIKRGGGGSGGGGSGGGGSGGGGSDIVLTQSPSSLSASVGDRVTITCKASQSVDFDGDSFMNWYQQKPGKAPKLLIYTTSNLESGVPSRFSASGSGTDFTLTISSLQPEDFATYYCQQSNEDPYTFGCGTKVEIKRGGGGSGGGGSGGGGSGGGGSEVQLVESGGGDVQPGGSLRLSCAFSGFSLRTSGMGVGWIRQAPGKCLEWVAHIWWDDDKRYNPSVKGRFTISKDTSSNTVYLQMNSLRAEDTAVYYCAQINPAWFAYWGQGTLVTVSSGGGGSGGGGSGGGGSGGGGSEVQLVESGGGLVQPGGSLRLSCAASGFTFTDYYMSWVRQAPGKCLEWLALIRSKADGYTTEYSASVKGRFTISRDDSKNSLYLQMNSLKTEDTAVYYCARDAAYYSYYSPEGAMDYWGQGTSVTVSSGGGGSGGGGSGGGGSDIQMTQSPSSLSASVGDRVTITCKASQNVDSAVAWYQQKPGKAPKALIYSASYRYSGVPSRFSGSGSGTDFTLTISSLQPEDFATYYCQQYYSTPWTFGCGTKVEIKR
notes: the list of removed pieces may not be complete; also called variant (f)
As for B3, the Kd in experiment [4] was 31 nM; in experiment [5], 18 nM; in experiment [6], 9 nM.

B4: humanized CD16-specific scFv variant 1/3 (Vk1 / VH3 frameworks, LH order, (Gly4Ser)4x linker) (scFv)
chain: DIVLTQSPSSLSASVGDRVTITCKASQSVDFDGDSFMNWYQQKPGKAPKLLIYTTSNLESGVPSRFSASGSGTDFTLTISSLQPEDFATYYCQQSNEDPYTFGQGTKVEIKRGGGGSGGGGSGGGGSGGGGSEVQLVESGGGDVQPGGSLRLSCAFSGFSLRTSGMGVGWIRQAPGKGLEWVAHIWWDDDKRYNPSVKGRFTISKDTSSNTVYLQMNSLRAEDTAVYYCAQINPAWFAYWGQGTLVTVSS
The molecule B4 had a Kd in experiment [7] of 12.7 nM.
